Experimental data reported in US8722052B2, “Vaccinia virus protein A46 peptide and use thereof” (priority 2008, dated 2014).

Experiments:
[1] = system: cell viability; assay: MTT cell viability assay, more detailed investigation of screening hits; assay type: cell-based; settings: cell type not stated
Protocol: Cell viability was measured by assessing mitochondrial function using an MTT (3-(4,5-Dimethylthiazol-2-yl)-2,5-diphenyltetrazolium bromide) assay. Cells were seeded into 96 well plates and treated with peptides and agonists as described above in relation to the Figs. Wells containing medium only served as a blank control. To terminate treatment of cells, medium was removed and the cells were washed once with PBS. 200 μl per well of 1 mg/ml MTT in PBS was added directly to the cells and the plates were incubated at 37° C. for 14-16 hrs in the dark. MTT was then removed and 200 μl per well of dimethyl sulphoxide (DMSO) was added and cells incubated for 20 min at 37° C. in the dark, prior to absorbance being read at 595 nm on a spectrophotometer.

[2] = target: T1, TLR4 (Mus musculus, UniProt Q9QUK6); assay: LPS-induced TNFα in RAW264.7 cells, ELISA; assay type: cell-based, murine; set-up: endogenous in cells; host or cells: RAW264.7; immortalised murine bone-marrow-derived macrophages
T1 sequence (Q9QUK6 26-835): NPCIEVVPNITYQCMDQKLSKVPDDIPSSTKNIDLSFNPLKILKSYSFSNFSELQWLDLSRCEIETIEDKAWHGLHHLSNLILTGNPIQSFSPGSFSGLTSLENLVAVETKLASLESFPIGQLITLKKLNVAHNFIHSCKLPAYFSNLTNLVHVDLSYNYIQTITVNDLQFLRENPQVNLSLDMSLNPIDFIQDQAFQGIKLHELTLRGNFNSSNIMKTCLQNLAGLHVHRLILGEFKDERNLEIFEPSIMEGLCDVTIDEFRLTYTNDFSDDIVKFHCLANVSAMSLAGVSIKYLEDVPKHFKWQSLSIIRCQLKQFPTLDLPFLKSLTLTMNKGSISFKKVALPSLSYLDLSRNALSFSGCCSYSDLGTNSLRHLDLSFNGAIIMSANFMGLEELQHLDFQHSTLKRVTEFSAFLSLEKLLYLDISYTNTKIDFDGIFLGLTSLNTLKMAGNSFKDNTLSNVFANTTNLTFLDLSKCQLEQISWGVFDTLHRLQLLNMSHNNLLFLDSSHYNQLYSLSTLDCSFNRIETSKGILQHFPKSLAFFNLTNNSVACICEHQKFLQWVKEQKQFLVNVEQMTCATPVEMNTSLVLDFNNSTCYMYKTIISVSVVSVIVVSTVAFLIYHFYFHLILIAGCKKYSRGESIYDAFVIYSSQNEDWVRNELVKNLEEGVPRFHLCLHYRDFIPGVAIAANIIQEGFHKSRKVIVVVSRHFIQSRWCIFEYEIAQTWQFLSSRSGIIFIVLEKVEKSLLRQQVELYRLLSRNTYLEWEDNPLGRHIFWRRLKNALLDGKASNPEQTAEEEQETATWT
T1 sequence (Q9JHF9 19-160 partner): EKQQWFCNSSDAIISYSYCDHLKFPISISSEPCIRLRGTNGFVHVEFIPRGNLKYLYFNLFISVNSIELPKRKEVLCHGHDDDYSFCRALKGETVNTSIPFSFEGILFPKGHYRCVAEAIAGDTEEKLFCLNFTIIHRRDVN
Protocol: FIGS. 5A and B are bar charts showing the dose-dependent inhibitory effect of A464R on LPS-induced TNFα in murine RAW264.7 cells. A464 (SEQ ID NO. 20) was added to the cells at a concentration of 5, 20 or 50 μM 1 hour before stimulating with 100 ng/ml LPS. Supernatant was collected 24 hours after stimulation and assayed for TNFα by ELISA (A) and cells were assayed for viability by the MTT assay (B.). No peptides were added to the control wells (black bars). Data is representative of at least three experiments each performed in triplicate and is expressed as mean±s.d;
FIGS. 6A and B are bar charts showing the effect of peptides derived from A46 on LPS-induced TNFα in murine RAW264.7 cells. A46 peptides were added to the cells at a concentration of 1 or 5 μM 1 hour before stimulating with 10 ng/ml LPS. Supernatants were collected 6 hours after stimulation and assayed for TNFα by ELISA. No peptides were added into the control wells (black bars). (A) peptides A461-A467 (SEQ ID NO. 17 to 23). (B) peptides A468-A4614 (SEQ ID NO. 24 to 30) (excluding A4610 SEQ ID NO. 26 and A4612 SEQ ID NO. 28). Data is representative of at least two experiments each performed in triplicate and is expressed as mean±s.d;
FIGS. 22 A and B are bar charts showing the effect of short A467 and A464 peptides, with 9R on either N- or C-terminus, on LPS- induced TNFα production in murine RAW264.7 cells. Cells were seeded in 96 well plates (1.5×10^5 cells/ml) 24 hours before treatment. Short A467 and short A464 peptides with the 9R delivery sequence on either the C-terminus (sA464C9R) (SEQ ID NO. 56) (A) or the N-terminus (sA464N9R) (SEQ ID NO. 57) (B) were added to the cells at a concentration of 5 or 25 μM 1 hour before stimulating with 10 ng/ml LPS. Normal full length A467 (SEQ ID NO. 23) and A464 (SEQ ID NO. 20) peptides were added at a concentration of 5 μM as positive controls. Supernatants were collected 6 hours after stimulation with the agonist and assayed for TNFα, by ELISA. No peptides were added to the control wells (black bars). Data is representative of at least three experiments each performed in triplicate and is expressed as mean±s.d;
Cytokine and chemokine production from cells or mouse serum was measured by ELISA using Duoset kits from R&D systems, according to the manufacturer's instructions.

KYSFKLILAEYRRRRRRRRR [Peptide A464] was tested. Which “cell viability (MTT assay)” value [1] did it give?
Its value is “less toxic”.

What about the “inhibition of LPS-induced mTNFα” value ([2]; peptide 1 or 5 μM 1 h before 10 ng/ml LPS, 6 h) of the same sequence?
The value was “inhibited LPS-induced mTNFα at 1 and 5 μM”.

And the “inhibition of LPS-induced murine TNFα production” value ([2]; peptide 5, 20 or 50 μM 1 h before 100 ng/ml LPS, 24 h)?
Its value is “potently inhibited LPS-induced murine TNFα production in RAW264.7 cells at just 5 μM”.
